The target of the test is T1, GST-tagged IRF3 (human, UniProt Q14653 1-427).
T1 construct: also called GST-IRF3
T1 sequence (looked up): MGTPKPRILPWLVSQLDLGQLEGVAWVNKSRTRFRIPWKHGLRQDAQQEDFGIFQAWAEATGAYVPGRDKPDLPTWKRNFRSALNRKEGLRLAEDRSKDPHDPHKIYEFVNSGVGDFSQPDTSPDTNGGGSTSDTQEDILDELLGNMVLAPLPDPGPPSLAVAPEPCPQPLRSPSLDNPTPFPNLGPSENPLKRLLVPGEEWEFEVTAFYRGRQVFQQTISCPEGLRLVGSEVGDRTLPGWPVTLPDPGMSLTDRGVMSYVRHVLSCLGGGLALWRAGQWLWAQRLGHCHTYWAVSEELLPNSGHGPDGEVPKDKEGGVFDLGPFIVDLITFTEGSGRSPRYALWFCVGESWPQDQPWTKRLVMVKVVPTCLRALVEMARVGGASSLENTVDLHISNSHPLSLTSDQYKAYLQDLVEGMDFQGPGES
Put plainly: pull-down. Particulars: both partners purified.

Consider 1 molecule from publication PMC11053110 (Nature Communications, 2024).

B1: His-tagged EGLN1 (enzyme, human, UniProt Q9GZT9 1-426, looked up)
chain: MANDSGGPGGPSPSERDRQYCELCGKMENLLRCSRCRSSFYCCKEHQRQDWKKHKLVCQGSEGALGHGVGPHQHSGPAPPAAVPPPRAGAREPRKAAARRDNASGDAAKGKVKAKPPADPAAAASPCRAAAGGQGSAVAAEAEPGKEEPPARSSLFQEKANLYPPSNTPGDALSPGGGLRPNGQTKPLPALKLALEYIVPCMNKHGICVVDDFLGKETGQQIGDEVRALHDTGKFTDGQLVSQKSDSSKDIRGDKITWIEGKEPGCETIGLLMSSMDDLIRHCNGKLGSYKINGRTKAMVACYPGNGTGYVRHVDNPNGDGRCVTCIYYLNKDWDAKVSGGILRIFPEGKAQFADIEPKFDRLLFFWSDRRNPHEVQPAYATRYAITVWYFDADERARAKVKYLTGEKGVRVELNKPSDSVGKDVF
notes: also called His-EGLN1
As to B1, the binding result is on record as “binds”.
